B1: Refmab #3 (antibody, human IgG1, V domains shown)
VH: QVQLVQSGAEVKKPGSSVKVSCKASGYTFTDYNMHWVRQAPGQGLEWIGYIYPYNGGTGYNQKFKSKATITADESTNTAYMELSSLRSEDTAVYYCARGRPAMDYWGQGTLVTVSS
VL: DIQMTQSPSSLSASVGDRVTITCRASESVDNYGISFMNWFQQKPGKAPKLLIYAASNQGSGVPSRFSGSGSGTDFTLTISSLQPDDFATYYCQQSKEVPWTFGQGTKVEIK
notes: Tested in IgG format; human IgG1 Fc silent (PG-LALA)
B2: Refmab #2 (antibody, human IgG1, V domains shown)
VH: QVQLVQSGAEVKKPGSSVKVSCKASGGTFSDYAISWVRQAPGQGLEWMGRIIPILGVADYAQKFQGRVTITADKSTRTAYMELSSLRSEDTAVYYCARNWADAFDIWGQGTMVTVSS
VL: DIQLTQSPSSLSASVGDRVTITCRASQGISSVLAWYQQKPGKAPKLLIYDASSLESGVPSRFSGSGSGTDFTLTISSLQPEDFATYYCQQFDSSITFGQGTKLEIK
notes: as for B1
B3: Refmab #1 (antibody, human IgG1, V domains shown)
VH: EVQLVQSGAEVKKPGSSVKVSCKASGYTITDSNIHWVRQAPGQSLEWIGYIYPYNGGTDYNQKFKNRATLTVDNPTNTAYMELSSLRSEDTAFYYCVNGNPWLAYWGQGTLVTVSS
VL: DIQLTQSPSTLSASVGDRVTITCRASESLDNYGIRFLTWFQQKPGKAPKLLMYAASNQGSGVPSRFSGSGSGTEFTLTISSLQPDDFATYYCQQTKEVPWSFGQGTKVEVK
notes: Tested in IgG format; human IgG1 (Absolute Antibody hP67.6, Cat. No. Ab00283-10.0); also called hP67.6

Biological target: human CD33 N20S (human, UniProt P20138 18-364)
Experiment: flow cytometry, mutant on cells, IgG

Sequence of human CD33 N20S (P20138 18-364 N20S limits assumed): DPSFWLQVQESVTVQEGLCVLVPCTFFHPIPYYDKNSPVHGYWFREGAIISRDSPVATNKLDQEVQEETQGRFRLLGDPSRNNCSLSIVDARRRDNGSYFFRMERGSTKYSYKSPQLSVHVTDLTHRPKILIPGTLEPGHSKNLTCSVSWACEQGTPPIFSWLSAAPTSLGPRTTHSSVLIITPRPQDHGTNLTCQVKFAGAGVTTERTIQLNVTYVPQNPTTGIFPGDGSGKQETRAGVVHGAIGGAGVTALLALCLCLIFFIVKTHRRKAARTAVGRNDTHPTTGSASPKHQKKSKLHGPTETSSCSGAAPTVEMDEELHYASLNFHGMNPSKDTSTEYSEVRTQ

Point of comparison: B1, “Mean % WT Binding” value 4.6 % WT binding. Against it:
- B2 — higher, 124 % WT binding
- B3 — higher, 45.5 % WT binding

Biological target: human CD33 N20Y (human, UniProt P20138 18-364)
Experiment: flow cytometry, mutant on cells, IgG

Sequence of human CD33 N20Y (P20138 18-364 N20Y limits assumed): as the sequence (P20138 18-364 N20S limits assumed) above, with S3Y counted along it

Point of comparison: B3, “Mean % WT Binding” value 0.4 % WT binding. Against it:
- B1 — higher, 0.6 % WT binding
- B2 — higher, 34.7 % WT binding

Biological target: human CD33 N20W (human, UniProt P20138 18-364)
Experiment: flow cytometry, mutant on cells, IgG

Sequence of human CD33 N20W (P20138 18-364 N20W limits assumed): as the sequence (P20138 18-364 N20S limits assumed) above, with S3W counted along it

Point of comparison: B3, “Mean % WT Binding” value 0.6 % WT binding. Against it:
- B1 — higher, 0.7 % WT binding
- B2 — higher, 61.2 % WT binding

Biological target: human CD33 N20D (human, UniProt P20138 18-364)
Experiment: flow cytometry, mutant on cells, IgG

Sequence of human CD33 N20D (P20138 18-364 N20D limits assumed): as the sequence (P20138 18-364 N20S limits assumed) above, with S3D counted along it

Point of comparison: B3, “Mean % WT Binding” value 0.7 % WT binding. Against it:
- B1 — higher, 4.6 % WT binding
- B2 — higher, 109 % WT binding

Biological target: human CD33 N20K (human, UniProt P20138 18-364)
Experiment: flow cytometry, mutant on cells, IgG

Sequence of human CD33 N20K (P20138 18-364 N20K limits assumed): as the sequence (P20138 18-364 N20S limits assumed) above, with S3K counted along it

Point of comparison: B2, “Mean % WT Binding” value 103 % WT binding. Against it:
- B1 — lower, 0.8 % WT binding
- B3 — lower, 0.4 % WT binding

Biological target: human CD33 N20V (human, UniProt P20138 18-364)
Experiment: flow cytometry, mutant on cells, IgG

Sequence of human CD33 N20V (P20138 18-364 N20V limits assumed): as the sequence (P20138 18-364 N20S limits assumed) above, with S3V counted along it

Point of comparison: B2, “Mean % WT Binding” value 116 % WT binding. Against it:
- B1 — lower, 0.5 % WT binding
- B3 — lower, 4.2 % WT binding

Biological target: human CD33 F21S (human, UniProt P20138 18-364)
Experiment: flow cytometry, mutant on cells, IgG

Sequence of human CD33 F21S (P20138 18-364 F21S limits assumed): as the sequence (P20138 18-364 N20S limits assumed) above, with S3N, F4S counted along it

Point of comparison: B3, “Mean % WT Binding” value 6.4 % WT binding. Against it:
- B1 — lower, 3.4 % WT binding
- B2 — higher, 115 % WT binding

Biological target: human CD33 W22G (human, UniProt P20138 18-364)
Experiment: flow cytometry, mutant on cells, IgG

Sequence of human CD33 W22G (P20138 18-364 W22G limits assumed): as the sequence (P20138 18-364 N20S limits assumed) above, with S3N, W5G counted along it

Point of comparison: B2, “Mean % WT Binding” value 113 % WT binding. Against it:
- B1 — lower, 9 % WT binding
- B3 — lower, 89.6 % WT binding

Biological target: human CD33 W22S (human, UniProt P20138 18-364)
Experiment: flow cytometry, mutant on cells, IgG

Sequence of human CD33 W22S (P20138 18-364 W22S limits assumed): as the sequence (P20138 18-364 N20S limits assumed) above, with S3N, W5S counted along it

Point of comparison: B3, “Mean % WT Binding” value 74.3 % WT binding. Against it:
- B1 — lower, 1.4 % WT binding
- B2 — higher, 105 % WT binding

Biological target: human CD33 W22L (human, UniProt P20138 18-364)
Experiment: flow cytometry, mutant on cells, IgG

Sequence of human CD33 W22L (P20138 18-364 W22L limits assumed): as the sequence (P20138 18-364 N20S limits assumed) above, with S3N, W5L counted along it

Point of comparison: B3, “Mean % WT Binding” value 45.8 % WT binding. Against it:
- B1 — lower, 1.5 % WT binding
- B2 — higher, 110 % WT binding

Biological target: human CD33 W22P (human, UniProt P20138 18-364)
Experiment: flow cytometry, mutant on cells, IgG

Sequence of human CD33 W22P (P20138 18-364 W22P limits assumed): as the sequence (P20138 18-364 N20S limits assumed) above, with S3N, W5P counted along it

Point of comparison: B2, “Mean % WT Binding” value 136 % WT binding. Against it:
- B1 — lower, 0.5 % WT binding
- B3 — lower, 2.7 % WT binding

Biological target: human CD33 W22Q (human, UniProt P20138 18-364)
Experiment: flow cytometry, mutant on cells, IgG

Sequence of human CD33 W22Q (P20138 18-364 W22Q limits assumed): as the sequence (P20138 18-364 N20S limits assumed) above, with S3N, W5Q counted along it

Point of comparison: B2, “Mean % WT Binding” value 108 % WT binding. Against it:
- B1 — lower, 12.5 % WT binding
- B3 — lower, 99.5 % WT binding

Biological target: human CD33 W22E (human, UniProt P20138 18-364)
Experiment: flow cytometry, mutant on cells, IgG

Sequence of human CD33 W22E (P20138 18-364 W22E limits assumed): as the sequence (P20138 18-364 N20S limits assumed) above, with S3N, W5E counted along it

Point of comparison: B3, “Mean % WT Binding” value 5 % WT binding. Against it:
- B1 — lower, 1.4 % WT binding
- B2 — higher, 107 % WT binding

Biological target: human CD33 L23M (human, UniProt P20138 18-364)
Experiment: flow cytometry, mutant on cells, IgG

Sequence of human CD33 L23M (P20138 18-364 L23M limits assumed): as the sequence (P20138 18-364 N20S limits assumed) above, with S3N, L6M counted along it

Point of comparison: B1, “Mean % WT Binding” value 98.1 % WT binding. Against it:
- B2 — higher, 107 % WT binding
- B3 — lower, 94.4 % WT binding

Biological target: human CD33 Q24T (human, UniProt P20138 18-364)
Experiment: flow cytometry, mutant on cells, IgG

Sequence of human CD33 Q24T (P20138 18-364 Q24T limits assumed): as the sequence (P20138 18-364 N20S limits assumed) above, with S3N, Q7T counted along it

Point of comparison: B1, “Mean % WT Binding” value 3.9 % WT binding. Against it:
- B2 — higher, 95.2 % WT binding
- B3 — higher, 81.4 % WT binding

Biological target: human CD33 Q24I (human, UniProt P20138 18-364)
Experiment: flow cytometry, mutant on cells, IgG

Sequence of human CD33 Q24I (P20138 18-364 Q24I limits assumed): as the sequence (P20138 18-364 N20S limits assumed) above, with S3N, Q7I counted along it

Point of comparison: B1, “Mean % WT Binding” value 61.3 % WT binding. Against it:
- B2 — higher, 96.8 % WT binding
- B3 — higher, 80 % WT binding

Biological target: human CD33 Q24L (human, UniProt P20138 18-364)
Experiment: flow cytometry, mutant on cells, IgG

Sequence of human CD33 Q24L (P20138 18-364 Q24L limits assumed): as the sequence (P20138 18-364 N20S limits assumed) above, with S3N, Q7L counted along it

Point of comparison: B2, “Mean % WT Binding” value 102 % WT binding. Against it:
- B1 — lower, 11.8 % WT binding
- B3 — lower, 80.9 % WT binding

Biological target: human CD33 Q24N (human, UniProt P20138 18-364)
Experiment: flow cytometry, mutant on cells, IgG

Sequence of human CD33 Q24N (P20138 18-364 Q24N limits assumed): as the sequence (P20138 18-364 N20S limits assumed) above, with S3N, Q7N counted along it

Point of comparison: B2, “Mean % WT Binding” value 117 % WT binding. Against it:
- B1 — lower, 35.3 % WT binding
- B3 — lower, 86.5 % WT binding

Biological target: human CD33 V25M (human, UniProt P20138 18-364)
Experiment: flow cytometry, mutant on cells, IgG

Sequence of human CD33 V25M (P20138 18-364 V25M limits assumed): as the sequence (P20138 18-364 N20S limits assumed) above, with S3N, V8M counted along it

Point of comparison: B3, “Mean % WT Binding” value 97.3 % WT binding. Against it:
- B1 — lower, 90.4 % WT binding
- B2 — lower, 83 % WT binding

Biological target: human CD33 T42K (human, UniProt P20138 18-364)
Experiment: flow cytometry, mutant on cells, IgG

Sequence of human CD33 T42K (P20138 18-364 T42K limits assumed): as the sequence (P20138 18-364 N20S limits assumed) above, with S3N, T25K counted along it

Point of comparison: B1, “Mean % WT Binding” value 103 % WT binding. Against it:
- B2 — lower, 95.5 % WT binding
- B3 — higher, 106 % WT binding

Biological target: human CD33 T42P (human, UniProt P20138 18-364)
Experiment: flow cytometry, mutant on cells, IgG

Sequence of human CD33 T42P (P20138 18-364 T42P limits assumed): as the sequence (P20138 18-364 N20S limits assumed) above, with S3N, T25P counted along it

Point of comparison: B3, “Mean % WT Binding” value 14.6 % WT binding. Against it:
- B1 — higher, 18.6 % WT binding
- B2 — lower, 12.7 % WT binding

Biological target: human CD33 F43V (human, UniProt P20138 18-364)
Experiment: flow cytometry, mutant on cells, IgG

Sequence of human CD33 F43V (P20138 18-364 F43V limits assumed): as the sequence (P20138 18-364 N20S limits assumed) above, with S3N, F26V counted along it

Point of comparison: B1, “Mean % WT Binding” value 101 % WT binding. Against it:
- B2 — lower, 24.5 % WT binding
- B3 — the same, 101 % WT binding

Biological target: human CD33 F44V (human, UniProt P20138 18-364)
Experiment: flow cytometry, mutant on cells, IgG

Sequence of human CD33 F44V (P20138 18-364 F44V limits assumed): as the sequence (P20138 18-364 N20S limits assumed) above, with S3N, F27V counted along it

Point of comparison: B1, “Mean % WT Binding” value 101 % WT binding. Against it:
- B2 — lower, 2.3 % WT binding
- B3 — lower, 99.5 % WT binding

Biological target: human CD33 F44Q (human, UniProt P20138 18-364)
Experiment: flow cytometry, mutant on cells, IgG

Sequence of human CD33 F44Q (P20138 18-364 F44Q limits assumed): as the sequence (P20138 18-364 N20S limits assumed) above, with S3N, F27Q counted along it

Point of comparison: B3, “Mean % WT Binding” value 106 % WT binding. Against it:
- B1 — lower, 105 % WT binding
- B2 — lower, 0.5 % WT binding

Biological target: human CD33 F44E (human, UniProt P20138 18-364)
Experiment: flow cytometry, mutant on cells, IgG

Sequence of human CD33 F44E (P20138 18-364 F44E limits assumed): as the sequence (P20138 18-364 N20S limits assumed) above, with S3N, F27E counted along it

Point of comparison: B1, “Mean % WT Binding” value 33.3 % WT binding. Against it:
- B2 — lower, 1.7 % WT binding
- B3 — higher, 92.7 % WT binding

Biological target: human CD33 H45Y (human, UniProt P20138 18-364)
Experiment: flow cytometry, mutant on cells, IgG

Sequence of human CD33 H45Y (P20138 18-364 H45Y limits assumed): as the sequence (P20138 18-364 N20S limits assumed) above, with S3N, H28Y counted along it

Point of comparison: B1, “Mean % WT Binding” value 4 % WT binding. Against it:
- B2 — higher, 80.7 % WT binding
- B3 — higher, 80.3 % WT binding

Biological target: human CD33 P46S (human, UniProt P20138 18-364)
Experiment: flow cytometry, mutant on cells, IgG

Sequence of human CD33 P46S (P20138 18-364 P46S limits assumed): as the sequence (P20138 18-364 N20S limits assumed) above, with S3N, P29S counted along it

Point of comparison: B2, “Mean % WT Binding” value 102 % WT binding. Against it:
- B1 — lower, 3.5 % WT binding
- B3 — lower, 21.4 % WT binding

Biological target: human CD33 D18N (human, UniProt P20138 19-364)
Experiment: flow cytometry, mutant on cells, IgG

Sequence of human CD33 D18N (P20138 18-364 D18N limits assumed): as the sequence (P20138 18-364 N20S limits assumed) above, with D1N, S3N counted along it

Point of comparison: B3, “Mean % WT Binding” value 69.6 % WT binding. Against it:
- B1 — higher, 71.5 % WT binding
- B2 — lower, 59.2 % WT binding

Biological target: human CD33 P46I (human, UniProt P20138 18-364)
Experiment: flow cytometry, mutant on cells, IgG

Sequence of human CD33 P46I (P20138 18-364 P46I limits assumed): as the sequence (P20138 18-364 N20S limits assumed) above, with S3N, P29I counted along it

Point of comparison: B3, “Mean % WT Binding” value 38.2 % WT binding. Against it:
- B1 — lower, 1.8 % WT binding
- B2 — higher, 55.8 % WT binding

Biological target: human CD33 P46R (human, UniProt P20138 18-364)
Experiment: flow cytometry, mutant on cells, IgG

Sequence of human CD33 P46R (P20138 18-364 P46R limits assumed): as the sequence (P20138 18-364 N20S limits assumed) above, with S3N, P29R counted along it

Point of comparison: B1, “Mean % WT Binding” value 1 % WT binding. Against it:
- B2 — higher, 64.7 % WT binding
- B3 — the same, 1 % WT binding

Biological target: human CD33 P46Y (human, UniProt P20138 18-364)
Experiment: flow cytometry, mutant on cells, IgG

Sequence of human CD33 P46Y (P20138 18-364 P46Y limits assumed): as the sequence (P20138 18-364 N20S limits assumed) above, with S3N, P29Y counted along it

Point of comparison: B1, “Mean % WT Binding” value 0.8 % WT binding. Against it:
- B2 — higher, 60.1 % WT binding
- B3 — higher, 0.9 % WT binding

Biological target: human CD33 I47S (human, UniProt P20138 18-364)
Experiment: flow cytometry, mutant on cells, IgG

Sequence of human CD33 I47S (P20138 18-364 I47S limits assumed): as the sequence (P20138 18-364 N20S limits assumed) above, with S3N, I30S counted along it

Point of comparison: B3, “Mean % WT Binding” value 105 % WT binding. Against it:
- B1 — lower, 94.9 % WT binding
- B2 — lower, 3.4 % WT binding

Biological target: human CD33 I47T (human, UniProt P20138 18-364)
Experiment: flow cytometry, mutant on cells, IgG

Sequence of human CD33 I47T (P20138 18-364 I47T limits assumed): as the sequence (P20138 18-364 N20S limits assumed) above, with S3N, I30T counted along it

Point of comparison: B1, “Mean % WT Binding” value 72.4 % WT binding. Against it:
- B2 — lower, 1.8 % WT binding
- B3 — higher, 97.2 % WT binding

Biological target: human CD33 P19D (human, UniProt P20138 18-364)
Experiment: flow cytometry, mutant on cells, IgG

Sequence of human CD33 P19D (P20138 18-364 P19D limits assumed): as the sequence (P20138 18-364 N20S limits assumed) above, with P2D, S3N counted along it

Point of comparison: B1, “Mean % WT Binding” value 0.6 % WT binding. Against it:
- B2 — higher, 99.3 % WT binding
- B3 — higher, 2.6 % WT binding

Source: US20260242735A1 (UNIVERSIT T BASEL, published 2026)
